Measurements: the nanobody polyreactivity screen of Harvey et al. (2022)

Assay: yeast display, Sf9 membrane polyspecificity reagent, FACS + sequencing; frameworks hold sequencing errors
Outline: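 Nanobodies came from a synthetic yeast display library in Saccharomyces cerevisiae BJ5465, induced with galactose for 36–48 hours and stained for 1 hour at 4 °C with 10% biotinylated, detergent-solubilized Sf9 membrane reagent. Cells were enriched on streptavidin microbeads and then FACS-sorted, with low and high (top ~1%) gates set on anti-HA fluorescence for expression and streptavidin fluorescence for reagent binding. Each polyreactivity label reflects the gate a clone came from. Genes were amplified by colony PCR, sequenced by MiSeq 2 × 250 and filtered by CDR length.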

Sequence | polyreactivity (PSR sort gate)
QVQLVESGGGLVQAGCSLRLSCAASGSTFFYYAMGWYRQSPGKERELVARISGGGSTNYADSVKGRFTISRDNAKNTVYLQMNSLKPEDTAVYYCAADRYDYYRYSYGRYGYWGQGTQVTVSS | high polyreactivity
QVQLVESGGGLVQAGGSLRLSCAASGITFGDYAMGWYRQAPGKERELVAAISYGGGSTYYADSVKGSFTISRDNAKNTVYLQMNSLKPEDTAVYYCAADGWRTYGYYEYDYWGQGTQVTVSS | low polyreactivity
QVQLVESGGGLVQAGGSLRLSCAASGYILQKYAMGWYRQAPGKERELVATISGGGGSTYYADSVKGRFTISRDNAKNTVYLLMNSLKPEDTAVYYCAKEYPWLPRSYEYWGQGTQVSVSS | low polyreactivity
QDQLVESGGGLVQAGASLRLSCPASGFLFESNAMGWYRQAPGKERELVAAITKRGGSTYYADSVKGRFTISRDNAKNTVYLQMKSLKPEDTAVYYCARYSSRYSSGYDYWGQGTQVTVSS | high polyreactivity
QVQLVESGGGLVQAGGSLRLSCAASGFIFGHYVMGWYRQAPGKERELVAAISVGGGRTYYADSVKGRFTISRDNAKNTVYLQMNSLKPEDTAVYYCRSYGYDYWGQGTQVTVSS | high polyreactivity
QVQLVESGGGLVQAGGSLRLSCAASGLTFYYYAMGWYRQAPGKERELVAAMSIGGSTDYADSVKGRFTISRDNAKNTVYLQMNSLKPEDTAVYYCNVDDNSEYDYWGQGTQVTVSS | low polyreactivity
QVQLVESGGGLVQAGGSLRLSCAASGRTFWYYTMGWYRQAPGKEREFVAAISYSAGNTYYADSVKGRFTISRDNAKNTVYLQMNSLKPEDTAVYYCAVQRGYRSNAYDYWGQGTQVTVSS | high polyreactivity
QVQLVESGGGLVQAGGSLRISCAASGFTFALYAMGWYRQAPGKERELVAAITRRGGSTYYADSVKGRFTISRDNAKNTVYLQMNSLKPEDTAVYNCAKRERAIKVSRYDSHDYWGQGTQVTVSS | high polyreactivity
QVQHVESGGGLVQAGGSLRLICAASGSTFYYNAMGWYRQAPGKERELVAAISFSGGSTYYADSVKGRFTISRDNAKNTVYLQMNSLKPDDTAVYYCNRVYYAFYVYYYSTYDYWGQGTQVTLSS | low polyreactivity
QVQLVESWGGLVQAGGSLRLSCAASGLIFVGNAMGWYRQAPGKERELVAAISSRGGRTYYADSVKGRFTISRDNAKNTVYLQMNSLKPEDTAVYYCAARVWRYPYYWGQGTQVTVSS | high polyreactivity
QVQLVDSGGGLVQAGGSLRLSCAASGFIFDTNVMGWYRQAPGKERELVAAISWDVDSTYYADSVKGRFTISRDNAKNTVYLQMNSLKPEDTAVYYCATETFDYYGLAGEYWGQGTQVTVSS | high polyreactivity
QVQLVESGGGLVQAGGSLRLSCAASGFTFPWYTMGWYRQAPGKERELGAAINSRGGSTYYADSVKGRFTISRDNAKNTVYLQMNSLKPEDTAVYYCATRSFGRMDYWGQGTQVTVSS | high polyreactivity
QDQLVESGGGLVQAGGSLRLSCAASVSIFWSYAMGRSRQAPGKEMELVASITRSGGSTYYADSVKGRFTISRDNAKNTVYLQMNSLKPEDTAVYYCNARRTTRWGSSKYEYDYCGQGTQVTVSS | high polyreactivity
QVQLVESGAGLVQAGGSLRLSCAASGSIFGPNAMGWYRQAPGKERELVAAISWSGASTYYADSVKGRFTISRDNAMNTVYLQMNSLKPEDTAVYYCAADYYGVSGSGYGYWGQGTQVTVSS | low polyreactivity
QVQLVESGGGLVQAGGSLRLSCAASGRIFGVYAMGWYRQAPGKERELVAAIDRRGGRTYYADSVKGRFTISRDNAKNTVYLQMNSLKPEDTAVYYCATARYRAEMGYWGQGTQVTVSS | high polyreactivity
QVQLVESGGGLVQAGGSLRLSCAASGITFPLYVMGWYRQAPGKERELVAAISASGGSTYADSVKGRFTISRDNAKNTVYLQMNSLKPEDTAVYYCNADVYVGYEYVYWGQGTQVTVSS | low polyreactivity
QVQLVESGGGLVQAGGSLRLSCAASGRTFGFNAMGWYRQAPGKARELVAAISSSSSSTYYADSVKGRFTISRDNAKNTVYLQMNSLKPEDTAVYYCAKQEPYPFGGYYEYDYWGQGTQVTVSS | low polyreactivity
QVQLVESGGGLVQAGGSLRLSCAASGSTFGEYAMGWYRQAPGKERELVAAISWSGDTTYYADSVKGRFTISRDNAKNTVYLQMNSLKPEDTAVYYCAARDYDRVGEDYWGQGTQVTVSS | low polyreactivity
QVQLVESGGGLVQAGGSLRLSCAASGSTFSTYAMGWYRQAPGKEREFVAAIRWSGGSTYYADSVKGRFTISRDNAKNTVYLQMNSLKREHTAVYYSAKGIRRWYGGCDYWGQGTKVTVSS | low polyreactivity
QVQLVESGGGLVQAGGSLRLSCAASGSTLDVYAMGWYRQAPGKERELVAAITVRATSTYYADSVKGRFTISRDNAKNTVYLQMNSQKPEDTAVYYCDARYEFFYKAFDVDSWGQGTQVTVSS | low polyreactivity
QVQLVESGGGLVHAGGSLRLSCAASGFIYDAYANGWYRQSPGKERELVAAIDSGGSTDYADSVKGRFTISRDNAKNTVYLQMNSLKPEDTAVYYCNAERAYLWWYNFDYWGQGTQVTVSS | low polyreactivity
QVQLVESGGGLVQAGGSLRLSCAASGFIFYVYAMGWYRQAPGKERELVATITSGGSTNYADSVKGRFTISRDNAKNTVYLQMNSLKPEDTAVYYCAADGWQSQYEYDYWGQGTQVTVSS | low polyreactivity
QVQLVESGGGLVLAGGSLRLSCAASGSTFIWNAMGWYRQAPGKERELVAAIRRGSSTNYADSVKGRFTISRDNAKNTVYLQMNSLKPEDTAVYYCAKKQVTTDVSSETFVLEMDYWGQGTQVTVSS | low polyreactivity
QVQLVETGGGLVQAGGSLRLSCAPSGINFTGYDMGWYRQAPGKERELVAAITSGGSTYYADSVKGRFTISRDNAKNTVYLQMNSLKPEDTAVYYCAARAKLTGYWGQGTQVTVSS | high polyreactivity
QVQLVESGGGLVQAGGSLRLSCAASGIIFDKNAMGWYRQAPGKERELVAVITRGGSTYYADSVKGRFTISRDNAKNTVYLQMNSLKPEDTAVYYCAARYTPGFGYWGQGTQVTVSS | high polyreactivity
QVQLVESGGGLVQAGGSLRLRCAASGLIFPYNAMGWYRQAPGKERELVAAIDTRGSSTYYADSVKGRFTISRDNAKNTVYLQMNSLKPEDSAVYYCNARTGRSPTGFRYWGQGTEVTVSS | high polyreactivity
QVQLVESGGGLVQAGGSLRLSCAASGIIFGRYAMGWYRQAPGKERELVATSSRGGGRTYYADSVKGRFTISRDNAKYTVYLLMNSLIPEDTAVYYCASYFYRGGLDSWGQGTQVTVSS | high polyreactivity
QVQLVESGGGLVQAGGSLRLSCAASGSILSVNAMGWYRQAPGKERELVAAINWSGGSTYYADSVKGRFTISRDNAKNTVYLQMNSLKPEDTAVYYCAARWRYSYVGDFDYWGQGTQVTVSS | high polyreactivity
QVQLVESGGGLVQAGGSLRLSCAASGRIFKSYDIGWYRQAPGKEMELVSAISQSGGGTYYADSVKGRFTISRDNAKNTVYLQMNSLKPEDTAVYYCAAYRRVNRYQKIDNYWGQGTQVTVSS | high polyreactivity
QVQLVESGGGLVQAGGSLRLSCAASGFTFRRNVMGWYRQAPGKERELVAAIRGSDGSTYYADSVKGRFTISRDNAKNTVYLQMNSLKPEDTAVYYCNVVGKGLYRKMGYWGQGTQVTVSS | high polyreactivity
